Earlier results, collected in PMC6191370.

Legend:
[1] = biological target: intermediate-affinity IL-2R (beta/gamma chains) (Homo sapiens) (UniProt P14784)
CD25 (Homo sapiens) = CD25 (Homo sapiens) (UniProt P01589)
Sequence of UniProt P01589 (P01589 22-240): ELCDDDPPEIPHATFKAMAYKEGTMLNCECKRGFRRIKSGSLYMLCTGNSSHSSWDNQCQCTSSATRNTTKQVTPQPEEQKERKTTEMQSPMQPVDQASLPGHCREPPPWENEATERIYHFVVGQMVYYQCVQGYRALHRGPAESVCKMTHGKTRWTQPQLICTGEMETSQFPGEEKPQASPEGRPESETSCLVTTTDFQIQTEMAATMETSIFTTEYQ

Sequence of UniProt P14784 (P14784 27-240, chain 1 of 2): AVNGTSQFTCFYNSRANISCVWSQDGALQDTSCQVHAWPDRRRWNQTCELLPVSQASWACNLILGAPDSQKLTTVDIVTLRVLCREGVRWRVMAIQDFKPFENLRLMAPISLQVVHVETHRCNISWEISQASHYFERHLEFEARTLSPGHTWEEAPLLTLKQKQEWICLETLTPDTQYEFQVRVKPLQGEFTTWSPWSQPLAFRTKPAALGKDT
Sequence of UniProt P14784 (P31785 23-262, chain 2 of 2, further chain): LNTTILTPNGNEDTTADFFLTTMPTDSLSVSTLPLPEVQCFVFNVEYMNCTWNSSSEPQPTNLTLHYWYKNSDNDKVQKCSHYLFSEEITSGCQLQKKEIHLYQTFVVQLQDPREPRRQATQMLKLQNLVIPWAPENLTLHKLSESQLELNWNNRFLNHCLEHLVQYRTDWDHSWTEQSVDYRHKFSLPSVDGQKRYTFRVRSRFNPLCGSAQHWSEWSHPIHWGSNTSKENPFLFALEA

IL-2 (from UniProt P60568)
Kd [1]: 1 nM | Kd (CD25 (Homo sapiens)): 10 nM
